# Assay: voltage response curve (normalized fluorescence versus static substrate potential) to determine target charge
# Type: physicochemical
# Conditions: protein bound to probe DNA
# Description: Note that so far no time dependence has been introduced, since the electric field has been kept stationary. However, with the above equation, it is possible to calculate the fluorescence signal for different values of the applied static potential Φ. The corresponding curve is referred to as “voltage response curve” in the following.
# Further note that the model so far only accounted for the free probe molecule, i.e. the double-stranded DNA, but not for any target molecule. As long as the stationary state is concerned, i.e. without a time-dependent electrical field, the target molecule will mainly affect the results due to a possible charge thereof. In fact, based on the above understanding of the stochastic behaviour of the probe molecule, the inventors conjectured that it should be possible to qualitatively and quantitatively determine the charge of the target molecule from the voltage response curve.
# The corresponding voltage response curve is shown by filled circles, while the voltage response curve of the free DNA is again shown by open diamonds. It can be seen that the voltage response curve in presence of the avidin also differs noticeably from that of the DNA alone.
row,Substance,charge of the target molecule
1,avidin: positively charged protein bound to the probe DNA,positively charged
2,streptavidin: negatively charged protein bound to the probe DNA,negatively charged
